Test results from paper PMC4666417, “Specific Interaction between eEF1A and HIV RT Is Critical for HIV-1 Reverse Transcription and a Potential Anti-HIV Target” (PLoS Pathogens, 2015).

How the values were obtained:
[1] = molecular target: HIV-1 Gag, 6xHis-tagged, purified (HIV-1); assay: BLI; biotinylated eEF1 subunit (eEF1A1, eEF1B, eEF1D or eEF1G) immobilised on streptavidin biosensor; RT subunits, RT heterodimer, Gag or RTp66 mutants as analytes at 90, 30 and 10 nM (mutants at 90 nM); kinetic buffer 1 mM phosphate, 15 mM NaCl, 0.002% Tween-20, 0.1 mg/ml gelatine, 1000 rpm, OctetRed; conditions: both partners purified
[2] = molecular target: T1, HIV-1 RT p66, 6xHis-tagged, purified (gift) (HIV-1, UniProt P04585 588-1147); assay: as above; conditions: both partners purified
T1 construct: source: E. coli, purified; gift

B1: eEF1A1 (eukaryotic elongation factor 1 subunit A1), MYC/DDK-tagged (natural protein, human, UniProt P68104 1-462, looked up)
chain: MGKEKTHINIVVIGHVDSGKSTTTGHLIYKCGGIDKRTIEKFEKEAAEMGKGSFKYAWVLDKLKAERERGITIDISLWKFETSKYYVTIIDAPGHRDFIKNMITGTSQADCAVLIVAAGVGEFEAGISKNGQTREHALLAYTLGVKQLIVGVNKMDSTEPPYSQKRYEEIVKEVSTYIKKIGYNPDTVAFVPISGWNGDNMLEPSANMPWFKGWKVTRKDGNASGTTLLEALDCILPPTRPTDKPLRLPLQDVYKIGGIGTVPVGRVETGVLKPGMVVTFAPVNVTTEVKSVEMHHEALSEALPGDNVGFNVKNVSVKDVRRGNVAGDSKNDPPMEAAGFTAQVIILNHPGQISAGYAPVLDCHTAHIACKFAELKEKIDRRSGKKLEDGPKFLKSGDAAIVDMVPGKPMCVESFSDYPPLGRFAVRDMRQTVAVGVIKAVDKKAAGAGKVTKSAQKAQKAK
modifications: biotinylated with EZ-Link Sulfo-NHS-Biotin where immobilised on the biosensor
notes: human eEF1A1, full-length; Used as analyte (a1, a2, a5) and, biotinylated, as immobilised ligand (a3); also called MYC/DDK-eEF1A1; purified eEF1A; source: HEK293 cells, bought: OriGene; not shown: MYC, C-terminal, kept; DDK, C-terminal, kept
Kd [1]: 21.5 ± 11.1 nM
koff [1]: 0.00188 s⁻¹
kon [1]: 87500 M⁻¹ s⁻¹
Kd [2]: 3.19 ± 1.08 nM
koff [2]: 0.000222 s⁻¹
kon [2]: 69500 M⁻¹ s⁻¹
